Measured values from patent US20230312751A1, “Anti-Fibrotic Combination” (Engitix Limited, priority 2020, published 2023).
“Also recorded” adds a separate entry of the source.

Tests used:
Assay type in all cases: cell-based
[1] = test system: Primary human hepatic stellate cells (HSCs); assay: Collagen type I production by stimulated HSCs, western blot (Example 7); conditions: 48 h stimulation, chymase 30, 100 or 300 ng/mL, tryptase 300, 1000, 3000 ng/mL, alone or in combination
Protocol: Primary human hepatic stellate cells (HSCs) were grown to confluence and maintained in growth media for 10 days. Cells were maintained in serum-free media for 48 h and subsequently stimulated with either human chymase alone (30, 100 or 300 ng/mL), human tryptase alone (300, 1000, 3000 ng/mL) or human chymase and tryptase in combination as indicated for a further 48 h. The PAR2 agonist at 10 or 100 ng/mL and TGFb1 (3 ng/mL) served as a positive control, whilst serum-free conditions provided a negative control.
Media was removed and the cells and extracellular proteins deposited lysed in RIPA buffer.

Primary human HSCs [2] = assay: Secretion of pro-fibrogenic factors by stimulated HSCs, Luminex (Example 9); conditions: 48 h
Protocol: Primary human HSCs were grown to confluence and maintained in growth media for 10 days. Cells were maintained in serum-free media for 48 h and subsequently stimulated with either human Chymase (30, 100 or 300 ng/mL), human tryptase alone (300, 1000, 3000 ng/mL) or in combination with chymase for a further 48 h. The TGFβ1 (3 ng/mL) served as a positive control and serum-free conditions as a negative control. Media was removed after 48 h and levels of secreted IGFBP-3, Tenascin C, Collagen IV and Endostatin levels were determined by Luminex.

[3] = test system: Primary human hepatic stellate cells (HSCs); assay: Deposited collagen type I in stimulated HSCs, immunofluorescence (Example 8)
Protocol: Primary human hepatic stellate cells (HSCs) were grown for 2 days. Cells were maintained in serum-free media for 48 h and subsequently stimulated with either human chymase (C) at 100 ng/mL, human tryptase (T) alone at 1000 ng/mL) or in combination (C 100 ng T 1000 ng) as indicated for a further 48 h. TGFβ1 served as a positive control, and serum-free conditions (SFM) as a negative control.
Following stimulation, media was removed and the cells washed in PBS and fixed with Formalin 4% for 15 min. Cells and extracellular proteins were stained with Rb ANTI-Col I (Novus Biologicals, NB600-408, 1:500) and images were acquired at 20× using a confocal microscope.

Primary human HSCs [4] = assay: Active/latent TGFβ in HSC conditioned media, TGFb-responsive luciferase reporter cells (Example 10); conditions: conditioned media heated at 80° C. for 10 minutes; chymase 100 (C2) and 30 ng/mL (C3)
Protocol: Primary human HSCs were grown to confluence and maintained in growth media for 10 days. Cells were maintained in serum-free media for 48 h and subsequently stimulated with either human Chymase (30, 100 or 300 ng/mL), human tryptase (300, 1000, 3000 ng/mL) or both in combination as indicated for a further 48 h. The TGFb1 (3 ng/mL) served at positive control and serum-free conditions as a negative control.
Conditioned media was collected and either transferred directly to cells harbouring a TGFb-responsive promoter linked to the firefly luciferase reporter gene for 24 h to determine the levels of active TGFb present in media, or conditioned media was heated at 80° C. for 10 minutes in order to activate in the conditioned media the latent TGFb into active TGFb present. The addition of exogenous TGFb1 (1 ng/mL served as a positive control. Cells were lysed after 24 h and levels of latent or active TGFb determined by measuring luciferase activity. The results are shown in FIG. 11.

[5] = chymase 100 ng/mL, tryptase 1000 ng/mL, 48 h

B1: chymase: human chymase, mast cell serine protease, added exogenously to stimulate hepatic stellate cells (protein, UniProt P23946 22-247, looked up)
Chymase: IIGGTECKPHSRPYMAYLEIVTSNGPSKFCGGFLIRRNFVLTAAHCAGRSITVTLGAHNITEEEDTWQKLEVIKQFRHPKYNTSTLHHDIMLLKLKEKASLTLAVGTLPFPSQFNFVPPGRMCRVAGWGRTGVLKPGSDTLQEVKLRLMDPQACSHFRDFDHNLQLCVGNPRKTKSAFKGDSGGPLLCAGVAQGIVSYGRSDAKPPAVFTRISHYRPWINQILQAN
collagen type I protein compared to basal levels in untreated cells [1]: marked increase
secreted IGFBP3 (Primary human HSCs [2]; regardless of concentration): marked increase
secreted Tenascin C (Primary human HSCs [2]; chymase 30, 100 or 300 ng/mL): concentration-dependent increase
secreted collagen IV (Primary human HSCs [2]; chymase 30, 100 or 300 ng/mL): concentration-dependent increase
secreted endostatin (Primary human HSCs [2]; chymase at all concentrations): significant increase
cell number (nuclear stain Hoechst) ([3]; C100 ng/mL, T1000 ng/mL, C100/T1000 ng/mL, relative to serum-free medium and TGF-beta controls): no effect
deposited collagen type I (collagen area / immunofluorescence intensity normalised to cell number) relative to SFM [3, 5]: did not induce a significant change
distribution of deposited collagen type I compared to serum-free alone (SFM) [3, 5]: change in distribution; also recorded: altered collagen distribution patterns
secreted latent TGFβ in conditioned media (Primary human HSCs [4]): increases
